Some targets named below: Fyn(h) (human) (UniProt P06241); CDK1/cyclinB(h) (human) (UniProt P06493); DMPK(h) (human) (UniProt Q09013); ZIPK(h) (human) (UniProt O43293); MAPKAP-K2(h) (human) (UniProt P49137); DAPK1(h) (human) (UniProt P53355); MSK2(h) (human) (UniProt O75676); PKBα(h) (human) (UniProt P31749); cKit(V654A)(h) (human) (UniProt P10721); EphA7(h) (human) (UniProt Q15375); PKBγ(h) (human) (UniProt Q9Y243).

What all share (assay): cell-based or functional assay
Test [1] has as its target EGFR(T790M,L858R)(h) (human) (UniProt P00533).
A further test concerns the target T1, SGK3(h) (human) (UniProt Q96BR1).
T1 sequence (looked up): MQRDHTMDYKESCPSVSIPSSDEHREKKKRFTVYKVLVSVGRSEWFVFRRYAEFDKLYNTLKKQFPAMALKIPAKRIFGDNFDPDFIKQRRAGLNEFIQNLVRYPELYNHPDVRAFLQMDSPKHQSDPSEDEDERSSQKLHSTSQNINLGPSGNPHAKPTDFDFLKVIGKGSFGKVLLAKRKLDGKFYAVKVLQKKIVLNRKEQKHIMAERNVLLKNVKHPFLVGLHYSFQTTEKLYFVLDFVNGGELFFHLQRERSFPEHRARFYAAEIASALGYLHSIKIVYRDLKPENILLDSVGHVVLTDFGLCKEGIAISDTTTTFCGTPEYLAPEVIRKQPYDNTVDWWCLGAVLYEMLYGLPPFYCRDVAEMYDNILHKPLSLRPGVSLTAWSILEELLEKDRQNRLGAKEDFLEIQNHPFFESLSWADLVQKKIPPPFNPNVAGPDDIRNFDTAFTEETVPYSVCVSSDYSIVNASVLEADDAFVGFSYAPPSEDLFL

For test [2], the target named is CDK9/cyclin T1(h) (human) (UniProt P50750).
The next test deals with T2, Itk(h) (human) (UniProt Q08881).
T2 sequence (looked up): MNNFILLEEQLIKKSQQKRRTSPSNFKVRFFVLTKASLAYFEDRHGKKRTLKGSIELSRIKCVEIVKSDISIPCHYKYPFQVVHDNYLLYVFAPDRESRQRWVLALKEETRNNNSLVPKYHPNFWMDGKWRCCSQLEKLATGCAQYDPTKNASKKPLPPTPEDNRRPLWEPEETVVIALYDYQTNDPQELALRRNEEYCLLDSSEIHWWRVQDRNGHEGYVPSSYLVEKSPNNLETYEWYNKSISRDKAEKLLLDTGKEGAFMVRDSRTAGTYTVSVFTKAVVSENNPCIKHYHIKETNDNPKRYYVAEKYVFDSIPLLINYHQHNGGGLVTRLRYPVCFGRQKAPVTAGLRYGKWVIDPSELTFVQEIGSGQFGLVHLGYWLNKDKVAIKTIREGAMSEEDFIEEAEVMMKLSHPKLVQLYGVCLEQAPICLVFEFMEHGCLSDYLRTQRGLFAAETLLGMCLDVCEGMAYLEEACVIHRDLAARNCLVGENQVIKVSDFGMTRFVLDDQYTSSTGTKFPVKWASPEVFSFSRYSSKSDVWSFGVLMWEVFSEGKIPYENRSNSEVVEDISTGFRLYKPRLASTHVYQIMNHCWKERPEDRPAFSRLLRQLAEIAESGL

The next test addresses T3, GCK(h) (human) (UniProt Q12851).
T3 sequence (looked up): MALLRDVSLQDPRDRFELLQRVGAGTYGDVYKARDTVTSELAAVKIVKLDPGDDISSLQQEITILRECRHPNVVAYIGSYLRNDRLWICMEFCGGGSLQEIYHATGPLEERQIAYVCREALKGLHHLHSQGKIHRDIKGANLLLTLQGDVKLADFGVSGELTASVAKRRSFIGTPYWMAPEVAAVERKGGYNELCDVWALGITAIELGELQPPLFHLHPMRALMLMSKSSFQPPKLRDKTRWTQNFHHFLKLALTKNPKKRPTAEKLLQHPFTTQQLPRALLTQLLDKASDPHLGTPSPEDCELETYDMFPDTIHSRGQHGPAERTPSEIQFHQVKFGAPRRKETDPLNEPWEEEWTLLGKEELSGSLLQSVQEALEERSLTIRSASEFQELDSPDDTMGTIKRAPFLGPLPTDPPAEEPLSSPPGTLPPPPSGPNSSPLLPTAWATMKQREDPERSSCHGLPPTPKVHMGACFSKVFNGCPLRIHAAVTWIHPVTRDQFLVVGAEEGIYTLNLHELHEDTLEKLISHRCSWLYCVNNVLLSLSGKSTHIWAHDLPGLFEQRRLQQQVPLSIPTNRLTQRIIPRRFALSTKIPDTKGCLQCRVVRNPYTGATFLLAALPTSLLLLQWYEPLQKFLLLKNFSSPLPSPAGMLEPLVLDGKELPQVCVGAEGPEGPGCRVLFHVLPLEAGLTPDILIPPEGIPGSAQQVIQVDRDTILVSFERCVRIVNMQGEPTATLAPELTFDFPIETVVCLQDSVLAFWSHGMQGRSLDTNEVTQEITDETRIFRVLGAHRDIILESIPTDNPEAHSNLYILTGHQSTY

Another test deals with T4, TSSK2(h) (human) (UniProt Q96PF2).
T4 sequence (looked up): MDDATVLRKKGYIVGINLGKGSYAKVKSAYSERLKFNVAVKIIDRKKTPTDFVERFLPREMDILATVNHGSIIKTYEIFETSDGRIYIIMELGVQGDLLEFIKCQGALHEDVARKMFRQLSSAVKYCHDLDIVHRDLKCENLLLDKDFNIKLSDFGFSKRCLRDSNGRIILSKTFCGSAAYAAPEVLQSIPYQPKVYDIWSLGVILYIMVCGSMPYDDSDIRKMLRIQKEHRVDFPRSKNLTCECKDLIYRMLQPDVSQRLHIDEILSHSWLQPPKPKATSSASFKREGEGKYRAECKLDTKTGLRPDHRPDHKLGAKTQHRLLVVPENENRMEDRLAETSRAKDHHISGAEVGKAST

Experimental findings from patent publication US20150064134A1 are described below.

cKit(V654A)(h) (human), sequence (P10721 544-976 V654A): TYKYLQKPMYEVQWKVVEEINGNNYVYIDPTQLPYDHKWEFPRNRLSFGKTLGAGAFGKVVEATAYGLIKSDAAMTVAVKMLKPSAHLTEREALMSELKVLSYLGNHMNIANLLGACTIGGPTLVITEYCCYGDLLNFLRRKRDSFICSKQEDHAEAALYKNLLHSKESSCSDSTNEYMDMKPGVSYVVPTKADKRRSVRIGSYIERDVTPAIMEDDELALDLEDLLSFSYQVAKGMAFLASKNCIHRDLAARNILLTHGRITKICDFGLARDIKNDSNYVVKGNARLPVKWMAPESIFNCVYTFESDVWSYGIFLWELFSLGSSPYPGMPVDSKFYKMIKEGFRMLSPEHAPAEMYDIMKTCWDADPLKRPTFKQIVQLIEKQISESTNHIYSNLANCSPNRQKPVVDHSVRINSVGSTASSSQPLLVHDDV
PKBγ(h) (human), sequence (Q9Y243 whole entry): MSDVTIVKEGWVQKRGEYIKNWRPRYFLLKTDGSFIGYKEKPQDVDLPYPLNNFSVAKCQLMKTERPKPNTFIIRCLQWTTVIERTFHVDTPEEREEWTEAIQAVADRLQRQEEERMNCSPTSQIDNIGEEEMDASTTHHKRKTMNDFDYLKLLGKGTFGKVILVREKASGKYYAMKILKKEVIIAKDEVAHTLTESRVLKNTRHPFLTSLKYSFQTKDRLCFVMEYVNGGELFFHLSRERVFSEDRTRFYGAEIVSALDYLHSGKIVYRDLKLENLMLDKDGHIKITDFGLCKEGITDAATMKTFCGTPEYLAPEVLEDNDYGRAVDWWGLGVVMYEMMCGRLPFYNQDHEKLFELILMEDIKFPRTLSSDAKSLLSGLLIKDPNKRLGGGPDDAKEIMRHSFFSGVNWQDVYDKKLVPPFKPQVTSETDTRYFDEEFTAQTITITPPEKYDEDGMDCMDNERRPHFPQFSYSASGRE
PKBα(h) (human), sequence (P31749 whole entry): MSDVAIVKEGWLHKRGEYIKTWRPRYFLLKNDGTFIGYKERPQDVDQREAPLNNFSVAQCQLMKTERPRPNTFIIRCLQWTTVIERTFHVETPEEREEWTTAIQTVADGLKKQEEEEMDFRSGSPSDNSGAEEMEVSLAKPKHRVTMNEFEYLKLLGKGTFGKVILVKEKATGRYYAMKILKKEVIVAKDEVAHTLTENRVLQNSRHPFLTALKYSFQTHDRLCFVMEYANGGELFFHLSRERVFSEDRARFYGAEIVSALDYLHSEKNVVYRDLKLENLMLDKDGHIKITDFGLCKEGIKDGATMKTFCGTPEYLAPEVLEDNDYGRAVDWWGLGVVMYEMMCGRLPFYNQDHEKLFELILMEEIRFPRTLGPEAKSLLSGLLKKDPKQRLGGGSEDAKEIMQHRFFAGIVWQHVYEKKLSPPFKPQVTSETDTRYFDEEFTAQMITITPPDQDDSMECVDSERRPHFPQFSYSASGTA

Consider MMI-0300 (peptide), for which the % activity at 100 µM with Fyn(h) (human) stood at 74%; with CDK1/cyclinB(h) (human), 73%; with DMPK(h) (human), 59%; in [1], 85%; with ZIPK(h) (human), 28%; in the test with SGK3(h) (human) it was 10%. Moreover, the % activity at 100 µM turned out to be 5% in the test with MAPKAP-K2(h) (human); 46% with DAPK1(h) (human); 56% with MSK2(h) (human); 57% with PKBα(h) (human); 134% with cKit(V654A)(h) (human); 91% in test [2]. The % activity at 100 µM with EphA7(h) (human) came out at 159%; in the test with Itk(h) (human) it was 77%; in the test with PKBγ(h) (human), 20%; with GCK(h) (human), 70%; with TSSK2(h) (human), 98%.
Consider MMI-0500 (peptide), for which the % activity at 100 µM was 83% in the test with Fyn(h) (human); 57% with CDK1/cyclinB(h) (human); 12% in the test with DMPK(h) (human); 53% in [1]; 1% with ZIPK(h) (human); -3% in the test with SGK3(h) (human). Besides, the % activity at 100 µM with MAPKAP-K2(h) (human) came out at 9%; with DAPK1(h) (human) it was 0%; with MSK2(h) (human) it was 14%; with PKBα(h) (human), 30%; in the test with cKit(V654A)(h) (human), 223%; in [2], 6%. Also, the % activity at 100 µM in the test with EphA7(h) (human) was found to be 189%; in the test with Itk(h) (human), 7%; in the test with PKBγ(h) (human), 20%; in the test with GCK(h) (human) it was 30%; with TSSK2(h) (human), 92%.
For the substance MMI-0400 (peptide), the % activity at 100 µM amounted to 54% with Fyn(h) (human); 74% with CDK1/cyclinB(h) (human); 54% with DMPK(h) (human); 78% in [1]; 13% with ZIPK(h) (human); 8% with SGK3(h) (human). The % activity at 100 µM was found to be 5% with MAPKAP-K2(h) (human); 36% with DAPK1(h) (human); 52% in the test with MSK2(h) (human); 67% with PKBα(h) (human); 150% with cKit(V654A)(h) (human); 235% in test [2]. The % activity at 100 µM was found to be 222% with EphA7(h) (human); 63% with Itk(h) (human); 41% with PKBγ(h) (human); 66% with GCK(h) (human); 94% with TSSK2(h) (human).
